B1: β isoform of PP1c released from rabbit skeletal muscle PP1G (enzyme, UniProt P62143 2-327, looked up)
chain: ADGELNVDSLITRLLEVRGCRPGKIVQMTEAEVRGLCIKSREIFLSQPILLELEAPLKICGDIHGQYTDLLRLFEYGGFPPEANYLFLGDYVDRGKQSLETICLLLAYKIKYPENFFLLRGNHECASINRIYGFYDECKRRFNIKLWKTFTDCFNCLPIAAIVDEKIFCCHGGLSPDLQSMEQIRRIMRPTDVPDTGLLCDLLWSDPDKDVQGWGENDRGVSFTFGADVVSKFLNRHDLDLICRAHQVVEDGYEFFAKRQLVTLFSAPNYCGEFDNAGGMMSVDETLMCSFQILKPSEKKAKYQYGGLNSGRPVTPPRTANPPKKR
notes: mature; also called PP1 catalytic subunit

In assay [1] the target is T1, myosin from chicken gizzard, dephosphorylated form (chicken, UniProt P10587 2-1979; P02612 2-172; P02607 2-151).
T1 construct: mature; Native protein pelleted by centrifugation; 1 µM in terms of heavy chains; also called myosin dimer
Kind of assay: co-sedimentation with myosin, phosphatase activity in pellet and supernatant. As for the experimental part: (§1) The PP1 catalytic subunit (PP1c), PP1_M, or PP1_M lacking the $M21$ subunit, $PP1_M(\Delta M21)$, each at 30 nM, were incubated for 15 min at 0° C. with 1 μM myosin and centrifuged (see Methods of Example 3). […] The results shown are the average (±S.E.M.) for three separate experiments each assayed in duplicate.
(§2) Myosin binding assays. Myosin (0.5 mg/ml, 1 µM in terms of myosin heavy chains) in 10 mM Hepes pH 7.5, 50 mM KCl, 5 mM MgCl2, 0.1% (by vol) 2-mercaptoethanol, was mixed with PP1_M, M$21$ subunit, or fragments of the M$110$ and M$21$ subunits, at the concentrations indicated in figure legends. After incubation for 15 min at 0° C., the solutions were centrifuged for 2 min at 13,000×g, the supernatants removed, and the pellets washed twice in 10 mM Hepes pH 7.5, 50 mM KCl, 5 mM MgCl2, 0.1% (by vol) 2-mercaptoethanol before resuspension in 50 mM Tris-HCl pH 7.5, 0.1 mM EGTA, 0.03% (by mass) Brij 35, 0.6 M NaCl, 0.1% (by vol) 2-mercaptoethanol. Aliquots of the supernatant, the resuspended pellet and the suspension before centrifugation were either assayed for myosin P-light chain phosphatase activity or denatured in SDS and analysed by SDS/polyacrylamide gel electrophoresis.

Assay [2] addresses T1, myosin from chicken gizzard, …. As to the kind of experiment: not described in Example 1.
Assay [3] has as its target B1. As to the kind of experiment: cell-based or functional assay.
Assay [4] addresses T2, MBP-M110-(K933-I1004) (chicken, UniProt Q90623 933-1004, digoxigenin label when used as probe).
T2 construct: also called digoxigenin-labelled MBP-M110-(K933-I1004); digoxigenin-labelled M110-(K933-I1004)
T2 sequence: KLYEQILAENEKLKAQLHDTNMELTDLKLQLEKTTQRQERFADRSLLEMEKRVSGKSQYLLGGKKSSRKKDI
Kind of assay: Far Western, blot probed with digoxigenin-labelled MBP-M110-(K933-I1004). As for the experimental part:
A) GST-$M21$ 5 μg (track 1), $M21$ 5 μg (track 2), $M21$-(M1-L146) 5 μg (track 3), $M21$-(M1-E110) 20 μg (track 4) and $M21$-(E110-K186) 5 μg (track 5) were run on 16.5% polyacrylamide gels and stained with Coomassie Blue. The marker proteins ovalbumin (43 kDa) and carbonic anhydrase (29 kDa) are indicated. B) GST-$M21$ 0.5 μg (track 1), $M21$ 0.5 μg (track 2), $M21$-M1-L146) 0.5 μg (track 3), $M21$-(M1-E110) 5 μg (track 4) and $M21$-(E110-K186) 5 μg (track 5) were electrophoresed as in A) and after transfer to nitrocellulose the blots were probed with digoxigenin-labelled MBP-$M110$-(K933-I1004) (0.2 μg/Ml). C) same as B) except that, after electrophoresis, the proteins were transferred to nitrocellulose and probed with digoxigenin-labelled $M21$ subunit (0.2 μg/ml).

For assay [5], the target named is T1, myosin from chicken gizzard, …. Kind of assay: co-sedimentation with myosin (as PP1M lacking M21). As for the experimental part:
as §1, §2

T1 sequence (P10587 2-1979, chain 1 of 3): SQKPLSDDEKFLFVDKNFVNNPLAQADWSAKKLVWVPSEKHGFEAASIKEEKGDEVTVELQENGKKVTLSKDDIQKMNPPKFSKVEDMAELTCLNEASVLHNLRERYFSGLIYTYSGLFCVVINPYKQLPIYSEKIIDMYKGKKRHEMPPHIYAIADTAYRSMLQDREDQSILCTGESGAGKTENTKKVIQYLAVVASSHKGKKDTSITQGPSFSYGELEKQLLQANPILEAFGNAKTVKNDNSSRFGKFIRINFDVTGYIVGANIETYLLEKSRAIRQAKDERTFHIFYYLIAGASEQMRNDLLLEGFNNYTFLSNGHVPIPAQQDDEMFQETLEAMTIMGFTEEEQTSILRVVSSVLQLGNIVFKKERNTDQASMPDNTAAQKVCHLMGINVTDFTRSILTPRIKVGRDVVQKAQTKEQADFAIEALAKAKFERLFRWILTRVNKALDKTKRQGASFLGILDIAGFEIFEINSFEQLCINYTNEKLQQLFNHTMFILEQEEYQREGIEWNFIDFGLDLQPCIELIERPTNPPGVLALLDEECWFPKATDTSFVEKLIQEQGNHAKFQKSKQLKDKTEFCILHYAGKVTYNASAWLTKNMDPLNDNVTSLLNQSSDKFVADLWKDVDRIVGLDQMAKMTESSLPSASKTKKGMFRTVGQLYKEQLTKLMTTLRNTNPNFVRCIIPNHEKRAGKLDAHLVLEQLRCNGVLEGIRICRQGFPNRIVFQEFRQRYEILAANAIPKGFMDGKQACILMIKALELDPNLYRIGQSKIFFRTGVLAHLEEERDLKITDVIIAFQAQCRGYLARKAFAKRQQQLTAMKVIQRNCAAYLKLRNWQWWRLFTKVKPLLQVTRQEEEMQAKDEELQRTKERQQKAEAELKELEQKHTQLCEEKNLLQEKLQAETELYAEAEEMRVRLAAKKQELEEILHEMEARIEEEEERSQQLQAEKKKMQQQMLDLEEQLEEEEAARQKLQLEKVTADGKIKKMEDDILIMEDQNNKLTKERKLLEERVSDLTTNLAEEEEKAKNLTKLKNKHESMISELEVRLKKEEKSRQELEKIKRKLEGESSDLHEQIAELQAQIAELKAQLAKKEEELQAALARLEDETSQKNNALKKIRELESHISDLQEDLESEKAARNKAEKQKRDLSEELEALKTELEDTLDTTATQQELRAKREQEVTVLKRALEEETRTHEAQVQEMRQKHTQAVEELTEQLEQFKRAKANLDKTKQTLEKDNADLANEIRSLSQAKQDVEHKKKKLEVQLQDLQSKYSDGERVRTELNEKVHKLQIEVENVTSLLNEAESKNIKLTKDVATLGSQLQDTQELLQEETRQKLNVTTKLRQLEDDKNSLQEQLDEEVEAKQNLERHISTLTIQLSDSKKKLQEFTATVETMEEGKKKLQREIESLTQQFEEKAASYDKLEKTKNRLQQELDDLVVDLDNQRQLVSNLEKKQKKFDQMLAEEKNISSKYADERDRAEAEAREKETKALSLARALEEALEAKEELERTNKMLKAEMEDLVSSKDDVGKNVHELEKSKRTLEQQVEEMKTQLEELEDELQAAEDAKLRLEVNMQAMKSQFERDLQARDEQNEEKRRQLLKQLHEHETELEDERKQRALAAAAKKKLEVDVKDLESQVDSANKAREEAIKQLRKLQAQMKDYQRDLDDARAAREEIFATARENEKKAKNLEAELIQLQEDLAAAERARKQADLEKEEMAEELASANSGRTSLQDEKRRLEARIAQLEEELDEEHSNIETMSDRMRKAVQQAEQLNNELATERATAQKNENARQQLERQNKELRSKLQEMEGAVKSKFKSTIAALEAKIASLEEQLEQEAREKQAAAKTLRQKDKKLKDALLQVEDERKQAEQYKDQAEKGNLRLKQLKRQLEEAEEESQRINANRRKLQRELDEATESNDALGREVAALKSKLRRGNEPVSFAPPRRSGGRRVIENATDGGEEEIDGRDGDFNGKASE
T1 sequence (P02612 2-172, chain 2 of 3): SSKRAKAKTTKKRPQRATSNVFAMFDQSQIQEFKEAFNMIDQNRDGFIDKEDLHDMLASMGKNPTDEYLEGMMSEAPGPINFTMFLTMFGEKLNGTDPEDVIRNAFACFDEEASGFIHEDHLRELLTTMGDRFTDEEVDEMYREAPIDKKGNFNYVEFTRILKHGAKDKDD
T1 sequence (P02607 2-151, chain 3 of 3): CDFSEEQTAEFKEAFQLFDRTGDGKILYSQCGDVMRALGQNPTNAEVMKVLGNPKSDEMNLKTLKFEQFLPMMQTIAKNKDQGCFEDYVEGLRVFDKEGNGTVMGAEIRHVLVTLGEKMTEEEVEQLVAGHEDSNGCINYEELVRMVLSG

As for B1, the binding result in assay [1] was “no binding (tested: 30 nM with 1 µM myosin)”.

B2: M110-(M1-E309), released from GST with thrombin (other)
chain: GSPGMKMADAKQKRNEQLKRWIGSETDLEPPVVKRQKTKVKFDDGAVFLAACSSGDTDEVLKLLHRGADINYANVDGLTALHQACIDDNVDMVKFLVENGANINQPDNEGWIPLHAAASCGYLDIAEFLIGQGAHVGAVNSEGDTPLDIAEEEAMEELLQNEVNRQGVDIEAARKEEERIMLRDARQWLNSGHISDVRHAKSGGTALHVAAAKGYTEVLKLLIQAGYDVNIKDYDGWTPLHAAAHWGKEEACRILVDNLCDMETVNKVGQTAFDVADEDILGYLEELQKKQNLLHSEKRDKKSPLIESTANMEA
notes: Rat aorta M110 fragment; free GST was left in the solution after cleavage; also called M100-(M1-E309)
Consider B2, for which the binding result in assay [2] is recorded as “no binding”. Further, in assay [3], the “MLC20 phosphatase activity of PP1c” value was ~3 fold.

B3: M21-(M1-E110), released from GST with thrombin (other)
chain: MSSLFTRSKEYTRSRKSQSDSPPSSPSPIAKTLRHERLSRLEAATTPATSDSYSDRASSRSSAYSRRENRLAALSSRAEEESNRDYKKLYESALSENQKLKSKLQEAQLEA
notes: not shown: the few vector residues left at the N terminus after thrombin cleavage of the modified pGEX fusion
For B3, the binding result in assay [4] is recorded as “no binding (tested: 0.2 µg/ml probe)”.

B4: M110 subunit of chicken gizzard PP1M, full length (other)
chain: MKMADAKQKRNEQLKRWIGSETDLEPPVVKRKKTKVKFDDGAVFLAACSSGDTEEVLRLLERGADINYANVDGLTALHQACIDDNVDMVKFLVENGANINQPDNEGWIPLHAAASCGYLDIAEYLISQGAHVGAVNSEGDTPLDIAEEEAMEELLQNEVNRQGVDIEAARKEEERIMLRDARQWLNSGHINDVRHAKSGGTALHVAAAKGYTEVLKLLIQARYDVNIKDYDGWTPLHAAAHWGKEEACRILVENLCDMEAVNKVGQTAFDVADEDILGYLEELQKKQNLLHSEKREKKSPLIESTANLDNNQTQKTFKNKETLIMEQEKNASSIESLEHEKADEEEEGKKDESSCSSEEEEDDDSESEAETDKAKTLANANTTSTQSASMTAPSVAGGQGTPTSPLKKFPTSTTKVSPKEEERKDESPASWRLGLRKTGSYGALAEITASKEAQKEKDSAGVIRSASSPRLSSSLDNKEKEKDGKGTRLAYVAPTIPRRLASTSDIDEKENRDSSASSIRSGSSYARRKWEEDVKKNSLNEGPTSLNTSYQRSGSFGRRQDDLVSSNVPSTASTVTSSAGLQKTLPASANTTTKSTTGSTSAGVQSSTSNRLWAEDSTEKEKDSVPTAVTVPVAPSVVNAAATTTAMTTATSGTVSSTSEVRERRRSYLTPVRDEESESQRKARSRQARQSRRSTQGVTLTDLQEAEKTIGRSRSTRTREQENEEKEKEEKEKQDKEKQEEKKESETKDDDYRQRYSRTVEEPYHRYRPTSTSTSTSSTSSLSTSTSSLSSSSQLNRPNSLIGITSAYSRSGTKESEREGGKKEEEKEEDKSQPKSIRERRRPREKRRSTGVSFWTQDSDENEQEHQSDSEEGTNKKETQSDSLSRYDTGSLSVSSGDRYDSAQGRSGSQSYLEDRKPYCSRLEKEDSTDFKKLYEQILAENEKLKAQLHDTNMELTDLKLQLEKTTQRQERFADRSLLEMEKRVSGKSQYLLGGKKSSRKKDI
notes: Native subunit, met as the M110 band of blotted PP1M or inside PP1M; also called 110 kDa subunit; Ch1
Take B4: the binding result in assay [5] was “binds”.

These data come from US6884600 (MEDICAL RESEARCH COUNCIL LONDON, dated 2005).
